Seven molecules from patent US20240034757A1 (OXFORD UNIVERSITY INNOVATION, published 2024) can be followed below.

Experiment [1] deals with T1, P1229_IXORI (Ixodes ricinus, UniProt A0A0K8R4R9 32-108).
T1 sequence: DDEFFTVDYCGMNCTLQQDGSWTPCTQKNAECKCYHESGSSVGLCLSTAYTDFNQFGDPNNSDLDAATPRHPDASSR
The experiment can be described thus: BLI. A general note: Biolayer interferometry detects binding as a change in optical thickness at a sensor tip.

Experiment [2] concerns the target T2, P1168_IXORI (Ixodes ricinus, UniProt A0A0K8RCU3 25-106).
T2 sequence: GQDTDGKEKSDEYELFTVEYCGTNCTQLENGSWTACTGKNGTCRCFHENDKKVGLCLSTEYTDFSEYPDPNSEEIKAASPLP
The experiment in a line: BLI.

The target in experiment [3] is T3, P1170_IXORI (Ixodes ricinus, UniProt A0A0K8RD51 29-102).
T3 sequence: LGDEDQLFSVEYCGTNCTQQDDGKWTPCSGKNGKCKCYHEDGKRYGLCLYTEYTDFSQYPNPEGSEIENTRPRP
The experiment in a line: BLI.

Experiment [4] addresses T4, P1095_IXORI (Ixodes ricinus, UniProt A0A0K8RCE3 24-112).
T4 sequence: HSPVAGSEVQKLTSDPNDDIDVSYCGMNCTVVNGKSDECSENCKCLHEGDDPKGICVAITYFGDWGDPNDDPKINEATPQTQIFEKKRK
The experiment can be described thus: BLI.

Experiment [5] has as its target T5, P1166_IXORI (Ixodes ricinus, UniProt A0A0K8RE99 25-110).
T5 sequence: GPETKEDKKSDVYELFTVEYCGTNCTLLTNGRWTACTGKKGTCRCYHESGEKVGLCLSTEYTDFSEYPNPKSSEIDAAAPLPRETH
The experiment in a line: BLI.

For experiment [6], the target named is T6, P1134_IXORI (Ixodes ricinus, UniProt A0A0K8RAI0 32-135).
T6 sequence: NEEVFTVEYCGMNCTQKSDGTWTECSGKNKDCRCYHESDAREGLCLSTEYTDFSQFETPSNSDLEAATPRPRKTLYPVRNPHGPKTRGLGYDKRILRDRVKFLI
The experiment can be described thus: BLI.

The target in experiment [7] is T7, P1132_IXORI (Ixodes ricinus, UniProt V5GZ08 29-106).
T7 sequence: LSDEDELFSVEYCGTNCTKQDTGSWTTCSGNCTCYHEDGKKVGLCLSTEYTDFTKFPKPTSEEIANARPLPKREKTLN
The experiment can be described thus: BLI.

For experiment [8], the target named is T8, P1174_IXORI (Ixodes ricinus, UniProt V5I3C5 28-104).
T8 sequence: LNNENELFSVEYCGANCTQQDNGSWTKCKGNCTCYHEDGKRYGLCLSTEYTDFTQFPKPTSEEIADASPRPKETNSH
The experiment in a line: BLI.

For experiment [9], the target named is T9, P1127_IXORI (Ixodes ricinus, UniProt A0A0K8RJ67 29-108).
T9 sequence: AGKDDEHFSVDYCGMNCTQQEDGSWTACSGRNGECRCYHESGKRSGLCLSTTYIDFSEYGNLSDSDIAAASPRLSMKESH
The experiment in a line: BLI.

Experiment [10] addresses T10, P1156_IXORI (Ixodes ricinus, UniProt V5HBW0 29-108).
T10 sequence: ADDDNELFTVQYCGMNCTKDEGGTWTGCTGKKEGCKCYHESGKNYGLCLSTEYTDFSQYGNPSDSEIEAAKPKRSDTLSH
The experiment can be described thus: BLI.

Experiment [11] has as its target T11, P1096_IXORI (Ixodes ricinus, UniProt A0A0K8RKE4 24-114).
T11 sequence: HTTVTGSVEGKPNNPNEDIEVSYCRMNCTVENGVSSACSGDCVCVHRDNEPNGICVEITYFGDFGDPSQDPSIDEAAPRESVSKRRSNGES
The experiment in a line: BLI.

The target in experiment [12] is T12, CCL3_HUMAN (human, UniProt P10147 24-92).
T12 sequence: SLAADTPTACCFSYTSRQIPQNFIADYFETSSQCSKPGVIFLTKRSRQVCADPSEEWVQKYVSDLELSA
The experiment can be described thus: yeast surface display FACS.

The target in experiment [13] is T13, CCL5_HUMAN (human, UniProt P13501 24-91).
T13 sequence: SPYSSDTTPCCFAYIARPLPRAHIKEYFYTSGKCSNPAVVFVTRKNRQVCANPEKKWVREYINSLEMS
The experiment can be described thus: yeast surface display FACS.

In experiment [14] the target is T14, CCL11_HUMAN (human, UniProt P51671 24-97). The experiment can be described thus: yeast surface display FACS.
Experiment [15] has as its target T15, CCL17_HUMAN (human, UniProt Q92583 24-94).
T15 sequence: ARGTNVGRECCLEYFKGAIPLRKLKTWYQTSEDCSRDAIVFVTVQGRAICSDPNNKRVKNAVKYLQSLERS
The experiment can be described thus: yeast surface display FACS.

The target in experiment [16] is T16, CCL1_HUMAN (human, UniProt P22362 24-96).
T16 sequence: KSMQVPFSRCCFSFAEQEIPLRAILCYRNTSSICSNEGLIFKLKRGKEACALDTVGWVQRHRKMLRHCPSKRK
The experiment can be described thus: yeast surface display FACS.

For experiment [17], the target named is T17, CCL19_HUMAN (human, UniProt Q99731 22-98).
T17 sequence: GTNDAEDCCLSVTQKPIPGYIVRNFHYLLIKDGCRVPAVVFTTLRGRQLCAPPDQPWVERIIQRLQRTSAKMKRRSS
The experiment in a line: yeast surface display FACS.

In experiment [18] the target is T18, CCL4_HUMAN (human, UniProt P13236 24-92).
T18 sequence: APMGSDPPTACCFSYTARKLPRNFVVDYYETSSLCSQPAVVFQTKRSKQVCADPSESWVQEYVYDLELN
The experiment can be described thus: yeast surface display FACS.

For experiment [19], the target named is T19, CXCL1_HUMAN (human, UniProt P09341 35-107).
T19 sequence: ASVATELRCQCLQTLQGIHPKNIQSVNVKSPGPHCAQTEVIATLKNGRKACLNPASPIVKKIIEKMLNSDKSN
The experiment in a line: BLI.

The target in experiment [20] is T20, CXCL3_HUMAN (human, UniProt P19876 35-107).
T20 sequence: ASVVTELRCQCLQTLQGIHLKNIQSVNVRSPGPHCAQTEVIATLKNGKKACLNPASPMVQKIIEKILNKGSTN
The experiment can be described thus: BLI.

The target of experiment [21] is T13, CCL5_HUMAN. The experiment can be described thus: yeast surface display FACS. This is another data set of the same source.
The target in experiment [22] is T14, CCL11_HUMAN. The experiment can be described thus: yeast surface display FACS. This is another data set of the same source.
Experiment [23] concerns the target T16, CCL1_HUMAN. The experiment in a line: yeast surface display FACS. This is another data set of the same source.
Experiment [24] concerns the target T21, CXCL12_HUMAN (human, UniProt P48061 22-89). The experiment can be described thus: yeast surface display FACS.
Experiment [25] deals with T22, CCL18_HUMAN (human, UniProt P55774 21-89).
T22 sequence: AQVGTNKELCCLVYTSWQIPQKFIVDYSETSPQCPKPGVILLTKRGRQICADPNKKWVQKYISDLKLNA
The experiment in a line: yeast surface display FACS.

For experiment [26], the target named is T12, CCL3_HUMAN. The experiment can be described thus: yeast surface display FACS. The source holds these as a separate data set.
In experiment [27] the target is T13, CCL5_HUMAN. The experiment can be described thus: yeast surface display FACS. The source holds these as a separate data set.
Experiment [28] concerns the target T14, CCL11_HUMAN. The experiment in a line: yeast surface display FACS. The source holds these as a separate data set.
Experiment [29] concerns the target T15, CCL17_HUMAN. The experiment can be described thus: yeast surface display FACS. This is another data set of the same source.
Experiment [30] concerns the target T21, CXCL12_HUMAN. The experiment in a line: yeast surface display FACS. This is another data set of the same source.
For experiment [31], the target named is T23, CCL8_HUMAN (human, UniProt P80075 24-99).
T23 sequence (looked up): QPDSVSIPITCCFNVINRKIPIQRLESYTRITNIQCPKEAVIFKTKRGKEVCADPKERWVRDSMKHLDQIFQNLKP
The experiment in a line: yeast surface display FACS.

For experiment [32], the target named is CCL20_HUMAN (human, UniProt P78556 27-96). The experiment can be described thus: yeast surface display FACS.
The target of experiment [33] is T13, CCL5_HUMAN. The experiment in a line: cell-based or functional assay.
Experiment [34] addresses T24, CCL23_HUMAN (human, UniProt P55773 22-120).
T24 sequence: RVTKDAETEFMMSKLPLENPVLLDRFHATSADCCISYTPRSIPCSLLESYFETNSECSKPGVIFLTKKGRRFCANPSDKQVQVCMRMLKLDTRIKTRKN
The experiment in a line: BLI.

For experiment [35], the target named is T25, CCL21_HUMAN (human, UniProt O00585 24-134).
T25 sequence: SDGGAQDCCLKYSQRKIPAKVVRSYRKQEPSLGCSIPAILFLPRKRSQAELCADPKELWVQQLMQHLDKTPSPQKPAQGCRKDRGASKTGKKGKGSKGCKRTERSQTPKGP
The experiment in a line: BLI.

In experiment [36] the target is T24, CCL23_HUMAN. The experiment can be described thus: BLI. The source holds these as a separate data set.
Experiment [37] deals with T25, CCL21_HUMAN. The experiment can be described thus: BLI. The source holds these as a separate data set.

Like-named read-outs stand apart in the source and are kept apart here.

T14 sequence (P51671 24-97 limits assumed): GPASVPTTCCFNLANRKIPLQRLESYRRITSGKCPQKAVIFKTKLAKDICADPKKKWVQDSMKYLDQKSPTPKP
T21 sequence (P48061 22-89 limits assumed): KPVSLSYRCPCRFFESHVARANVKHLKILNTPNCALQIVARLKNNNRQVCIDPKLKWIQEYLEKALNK
Sequence of CCL20_HUMAN (P78556 27-96 limits assumed): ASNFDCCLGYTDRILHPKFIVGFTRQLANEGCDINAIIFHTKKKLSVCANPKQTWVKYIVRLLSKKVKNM

B1: CXCL11_HUMAN (ligand)
chain: FPMFKRGRCLCIGPGVKAVKVADIEKASIMYPSNNCDKIEVIITLKENKGQRCLNPKSKQARLIIKKVERKNF
With B1, the binding result in experiment [1], in experiment [2], in experiment [3], in experiment [4], in experiment [5] and in experiment [6] was “no binding (tested: 300 nM)” each time. Also, the binding result in [7], in experiment [8], in [9], in experiment [10] and in experiment [11] was “no binding (tested: 300 nM)” in each case.

B2: P1005_AMBMA (other)
chain: EKDTPKNIPGCGDTGTTAAPPADNPKHFAVYTDKHGCTIKVIGTWMTKEDHSRLPVSLRRVRASSGRVMLPASCQKICNDTVKNFPEGTPCRLVTGDPIKGKNHIKDGCIRGYCSSGVCVSDKRNISCYVPPN
Consider B2, for which the binding result in [12], in [13], in experiment [14], in [15], in experiment [16] and in experiment [17] was “binds” in each case.

B3: P1014_AMBCA (other)
chain: DIIGGIPGCGDPTTTSAPEVPPKHFAVRTDKDGCTLMIIGTWMTTEDHNRLPPDIGEKRAPYGRVQLPASCKKNCHGKVKNLPNGTPCREVFGDPRRGRKHIKNGCTVGKCQSGLCVTDKRIISCYIPPNITDPIPTHGPWAE
Regarding B3, in experiment [18], the binding result is “binds”.

B4: P943_IXORI (other)
chain: RSKQPTASQSSKNSIKAEFCDTNCTQGTNGAWSGCSEGCFCVHVGNNTKGRCMKLSSDYDYTTQ
For B4, the Kd stood at 540 nM in [19] and 270 nM in experiment [20].

B5: P1209_AMBPA (other)
chain: KTDTKNAAGELPPKVAIPGCEDPATTKAPLPDDPRYYGVTIDKDGCQRKVLGSSQRQQRQVQNGRKPGRKGRGRRPVFVDLKLTVDCKRKCNGTYSQLPDGEPCLVCDGEPYGRHRTIKGGCYQGNCSSGQCHRGERKVNCYIPKNITNNVLNSVNLAE
In the case of B5, the binding result in experiment [21], in [22], in [23], in experiment [24] and in [25] was “binds” throughout.

B6: P1030_AMBPA (other)
chain: GPPSIPGNESIPGCGDAGTTTAPEDNPKHYGTLTDKKGCTLPIIGTWMTAVDHQHLQGTRGERRGPTGKVNLPASCRKNCHGRQEILRDGIPCRKVVGNPKGSKKHLKSGCLRGKCLAGQCVNDGRRISCYVPRNITDTEPTPGLLAE
With B6, the binding result in [26], in [27], in experiment [28], in [29], in experiment [30] and in experiment [31] was “binds” throughout. Moreover, in experiment [32], the binding result is “binds”.

B7: P1243_AMBAM (other)
chain: RNHTEDNSTEYYDYEEARCACPARHLNNTNGTVLKLLGCHYFCNGTLCTAPDGYPCYNLTAQQVRTLTTYPNTSCAVGVCMKGTCVKNGTMEQCFKTP
On to B7, for which the “IC50, THP1 cell migration” value in experiment [33] worked out at 7.87 nM. The Kd was 6.62 nM in experiment [34], 6.54 nM in [35], 6.62 nM in experiment [36] and 6.54 nM in [37].

A word on the Kd: it is the concentration at which binding is half-saturated. Higher therefore signals lower affinity.
